Where “and” joins values, the source holds several entries; their conditions need not be identical. Identical values can stand only once.
Experiments:
[1] = biological target: the molecule itself; test: SEC-MALS; enzymatically active myo-IDH, 0.5-2 mg/ml, Agilent Biosec-3 column, 0.3 ml/min, 50 mM phosphate buffer pH 7.0, 300 mM NaCl, 15°C; miniDAWN light scattering, refractive index and UV detectors
purified protein [2] = substrate: O[C@H]1[C@H](O)[C@@H](O)[C@H](O)[C@@H](O)[C@@H]1O; test: purified protein; type: biochemical, Entamoeba histolytica; conditions: 1 mM NAD+, 10 mM sodium pyrophosphate pH 9, room temperature; pH 9.0
purified protein [3] = substrate: O[C@H]1[C@H](O)[C@@H](O)[C@H](O)[C@@H](O)[C@H]1O; test: purified protein; type: biochemical, Entamoeba histolytica; conditions: 1 mM NAD+, 10 mM sodium pyrophosphate pH 9, room temperature; pH 9.0
purified protein [4] = substrate: NC(=O)c1ccc[n+]([C@@H]2O[C@H](COP(=O)(O)OP(=O)(O)OC[C@H]3O[C@@H](n4cnc5c(N)ncnc54)[C@H](O)[C@@H]3O)[C@@H](O)[C@H]2O)c1; test: purified protein; type: biochemical, Entamoeba histolytica; conditions: 12.5 mM myo-inositol, 10 mM sodium pyrophosphate pH 9, room temperature; pH 9.0; varied: cofactor
purified protein [5] = substrate: O=C1[C@@H](O)[C@H](O)[C@@H](O)[C@H](O)[C@H]1O; test: purified protein; type: biochemical, Entamoeba histolytica; conditions: reverse reaction, NADH as co-substrate (concentration not stated)
purified protein [6] = substrate: NC(=O)C1=CN([C@@H]2O[C@H](COP(=O)(O)OP(=O)(O)OC[C@H]3O[C@@H](n4cnc5c(N)ncnc54)[C@H](O)[C@@H]3O)[C@@H](O)[C@H]2O)C=CC1; test: purified protein; type: biochemical, Entamoeba histolytica; conditions: reverse reaction, keto-2-inositol as presumed co-substrate (concentration not stated); varied: cofactor
purified protein [7] = substrate: NC(=O)c1ccc[n+]([C@@H]2O[C@H](COP(=O)(O)OP(=O)(O)OC[C@H]3O[C@@H](n4cnc5c(N)ncnc54)[C@H](OP(=O)(O)O)[C@@H]3O)[C@@H](O)[C@H]2O)c1; test: purified protein; type: biochemical, Entamoeba histolytica; conditions: 12.5 mM myo-inositol, 10 mM sodium pyrophosphate pH 9, room temperature; pH 9.0; varied: cofactor

B1: recombinant 6xHis-tagged E. histolytica myo-inositol dehydrogenase (myo-IDH) (enzyme, Entamoeba histolytica, UniProt C4LVW1 1-316, looked up)
chain: MQSNKVRICLCGTGRLGSFRASLFIESQDIELVGVVEPFRVCQSVLDRPNIKIFKTVEEINIPIDGIWISTPTKFHLQTIKLASKKVKHIYCEKPIASTPEEVKEAYETCRKNGVSLHCGWMRRRDPGYQSIKEYLVSHNVSIQRAEFHSFDWPLVPPEFLKTLGNIFTDLMCHDFNLIMYYMNNTLPKYVTAVGIDGGAGVWDSATASLEYPNNVVLTIIATRNGNKVYDNSLTVLTSDSHILECGKEPENLTETFMKRHEKNFKKELPFFANIIRNNGTSGDVLSCVNTSILIQAATRSATLGGKRIPLVIPKL
notes: myo-inositol dehydrogenase (myo-IDH, EC 1.1.1.18) of Entamoeba histolytica, gene EHI_125740; theoretical weight 36.4 kDa including the 6x-His tag; the natural protein ends in a PTS1 tripeptide; also called putative inositol dehydrogenase; EHI_125740; source: E. coli BL21 Rosetta, pET42b, purified (Ni-NTA agarose, native conditions, imidazole)
For B1, the “stoichiometry N” value [1] was 2 and 3, the Km (purified protein [2]) was 229 ± 20 µM and the Vmax (purified protein [2]) was 6.2 µmol/min/mg. It also gave a Km (purified protein [3]) of 44 ± 4 µM, a Vmax (purified protein [3]) of 5.45 µmol/min/mg and a Km (purified protein [4]) of 38 ± 4 µM. The Vmax (purified protein [4]) was 1 µmol/min/mg, the Km (purified protein [5]) was 322 ± 34 µM and the Vmax (purified protein [5]) was 4.41 µmol/min/mg. For the same protein, the Km (purified protein [6]) was 9 ± 0 µM, the Vmax (purified protein [6]) was 1.64 µmol/min/mg and the Km (purified protein [7]) was 1201 ± 532 µM. The Vmax (purified protein [7]) was 0.826 µmol/min/mg.
